# In PMC12650828, “Dual-Mode Aptamer AP1-F Achieves Molecular–Morphological Precision in Cancer Diagnostics via Membrane NCL Targeting”:
# Target: nucleolin (NCL) (Homo sapiens, UniProt P19338 1-710)
# Experiment: MST; MST: 300 nM FAM-aptamer, NCL 1.95 nM-4 uM, binding buffer not specified, 25 C, 15 min; AP1-AP6 and Mut folded in 100 mM KCl, 10 mM K3PO4 pH 7.0; AS1411 in 100 mM NaCl, 10 mM Tris-HCl pH 7.0; cell competition at 4 C, 1 h
# Settings: protein: commercial; label: 5'-FAM (amide bond linker); G4
# nucleolin (NCL), sequence (P19338 whole entry): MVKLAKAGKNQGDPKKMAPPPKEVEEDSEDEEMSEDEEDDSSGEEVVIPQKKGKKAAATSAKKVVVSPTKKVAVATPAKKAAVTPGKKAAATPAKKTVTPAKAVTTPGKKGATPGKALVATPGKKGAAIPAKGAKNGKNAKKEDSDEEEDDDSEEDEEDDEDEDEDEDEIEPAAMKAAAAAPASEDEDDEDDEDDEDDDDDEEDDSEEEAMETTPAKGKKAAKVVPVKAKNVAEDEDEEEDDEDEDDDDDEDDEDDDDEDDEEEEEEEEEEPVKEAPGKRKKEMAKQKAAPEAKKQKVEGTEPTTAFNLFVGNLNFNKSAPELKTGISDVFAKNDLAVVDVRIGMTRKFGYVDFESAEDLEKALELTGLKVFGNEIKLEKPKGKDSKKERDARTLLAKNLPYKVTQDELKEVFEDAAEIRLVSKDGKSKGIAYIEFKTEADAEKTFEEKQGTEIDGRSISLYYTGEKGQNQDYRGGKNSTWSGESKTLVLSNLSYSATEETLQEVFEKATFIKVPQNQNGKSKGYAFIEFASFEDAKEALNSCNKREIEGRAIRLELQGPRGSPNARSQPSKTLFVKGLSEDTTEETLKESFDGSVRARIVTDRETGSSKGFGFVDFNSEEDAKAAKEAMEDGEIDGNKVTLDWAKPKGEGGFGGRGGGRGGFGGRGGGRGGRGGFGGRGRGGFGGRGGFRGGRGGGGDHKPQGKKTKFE
row,Binder,Kd
1,GUUAGGGUUUGGGAUUG (structured_RNA) [AP1-F],474 ± 47.7 nM

# Same assay, conditions: protein: commercial; label: 5'-FAM (amide bond linker); G4, loop-length variant
row,Binder,Kd
1,GUUAGGGUUUAUUGGGAUUG (structured_RNA) [AP4-F],822 ± 290 nM
2,GUUAGGGUUUUGGGAUUG (structured_RNA) [AP2-F],621 ± 269 nM
3,GUUAGGGUUUAUGGGAUUG (structured_RNA) [AP3-F],499 ± 95.5 nM
4,GUUAGGGUUUAUUUGGGAUUG (structured_RNA) [AP5-F],926 ± 140 nM
5,GUUAGGGUUUAUUAUGGGAUUG (structured_RNA) [AP6-F],507 ± 132 nM
